This is an account of results in patent publication US20070248602A1.

In test [1] the target is human FcγRIIIa (FIG. 41 data; allotype not given) (human) (UniProt P08637). Nature of the test: AlphaScreen competition. (In general: In Alpha technology, singlet oxygen from a donor bead excites a nearby acceptor bead.)
For test [2], the target named is FcγRIIIa on human PBMCs expressing heterozygous V158/F158 FcγRIIIa (human) (UniProt P08637). The experiment in a line: cell-based or functional assay.
FcγRIIIa on human PBMCs expressing heterozygous V158/F158 FcγRIIIa (human), sequence (P08637 17-254): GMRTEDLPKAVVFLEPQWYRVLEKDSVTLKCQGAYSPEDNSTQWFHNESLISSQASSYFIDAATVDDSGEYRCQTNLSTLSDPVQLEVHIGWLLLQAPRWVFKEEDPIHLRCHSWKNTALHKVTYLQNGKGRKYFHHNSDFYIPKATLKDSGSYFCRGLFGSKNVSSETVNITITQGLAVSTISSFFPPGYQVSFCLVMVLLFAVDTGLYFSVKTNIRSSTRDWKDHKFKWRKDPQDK

human FcγRIIIa (FIG. 41 data; allotype not given) (human), sequence (P08637 17-208): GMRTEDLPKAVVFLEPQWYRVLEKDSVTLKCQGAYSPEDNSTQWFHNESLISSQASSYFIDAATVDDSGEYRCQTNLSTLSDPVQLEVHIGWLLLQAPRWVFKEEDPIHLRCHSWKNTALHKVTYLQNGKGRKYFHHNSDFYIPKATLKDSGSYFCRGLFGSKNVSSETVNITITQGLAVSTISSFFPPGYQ

“S239D/A330L/I332E Fc variant (FIG. 41 data, antibody context not told in the text)”: in test [1], the FcγRIIIa-fold turned out to be 139 fold and the FcγRIIIa-fold:FcγRIIb-fold is 18.

In test [2], S239D/I332E alemtuzumab (antibody) yielded an ADCC EC50, DoHH-2 target cells of 3 ng/mL; an ADCC Fold WT, DoHH-2 target cells of 3.3 fold; an ADCC log(EC50), DoHH-2 target cells of 0.49.

Substance “S239D/I332E Fc variant (FIG. 41 data, antibody context not told in the text)” came in with a FcγRIIIa-fold in test [1] of 192 fold.

In test [2], V264I/I332E alemtuzumab (antibody) gave an ADCC EC50, DoHH-2 target cells of 4 ng/mL and an ADCC log(EC50), DoHH-2 target cells of 0.6.
